From US11618906B2, “Hydroxylation techniques” (HYPHA DISCOVERY LTD., priority 2018, dated 2023)
Substitutions are numbered along the chain they refer to. Numbers in names are those of the source.

B1: aluC09M37: cytochrome P450 aluC09 mutant T291W; amino acid sequence SEQ ID NO: 60 (protein, listed as Amycolatopsis lurida)
chain: MTDVEETTATLPLARKCPFSPPPEYERLRRESPVSRVGLPSGQTAWALTRLEDIREMLSSPHFSSDRQSPSFPLMVARQIRREDKPFRPSLIAMDPPEHSRARRDVVGEFTVKRMKALQPRIQQIVDEHLDALLAGPKPADLVQALSLPVPSLVICELLGVPYSDHEFFQSCSSRMLSREVTAEERMTAFEQLENYLDELVTKKEANATEDDLLGRQILKQRETGEADHGELVGLAFLLLIAGHETTANMISLGTVTLLENPDQLAKIKADPGKTLAAIEELLRVFTIAEWATSRFATADVEIGGTLIRAGEGVVGLSNAGNHDPDGFENPDTFDIERGARHHVAFGFGVHQCLGQNLARLELQIVFDTLFRRVPGLRIAVPVDELPFKHDSTIYGLHALPVTW
B2: aluC09M40: cytochrome P450 aluC09 mutant T291R; amino acid sequence SEQ ID NO: 72 (protein, listed as Amycolatopsis lurida)
chain: B1 chain with W291R

What was measured:
Type in all cases: biochemical
[1] = Metabolism of BIRB796 by P450 aluC09 and mutants; settings: percent of substrate being converted; 0.125 mg/ml, 27° C., 16-20 hours; [CYP] per enzyme as in Table 8
How it was run: (§1)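 Mutant P450s were combined with redox partners and substrate (0.125 mg/ml) in pH 7.4 phosphate buffer with 5 mM MgCl2 and cofactor recycling (1 mM NADP, 5 mM G6P, 2 UN/ml G6PDH). Mixtures were shaken at 27° C for 16-20 hours, extracted with equal-volume acetonitrile and centrifuged. Products were quantified as conversion by UPLC-MS.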

[2] = Hydroxylation of diclofenac catalysed by cytochrome P450 aluC09 and mutants (UPLC-PDA-MS); settings: for 4′,5-dihydroxy-diclofenac 1.38 mins / 4′-hydroxy-diclofenac (1) 1.62 mins / 5-hydroxy-diclofenac (2) 1.58 mins / Diclofenac (Substrate) 1.81 mins: % by UV peak area at 275 nm, 0.125 mg/ml substrate, 27° C., 16-20 hours; for Hydroxylated Ratio hydroxy 1:hydroxy 2: diclofenac, ratio of UV peak areas at 275nm
How it was run: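 Lyophilised CYP450aluC09 or mutants, with ferredoxin aluF03 and reductase SCF15A, incubated 16-20 hours at 27° C with 0.125 mg/ml diclofenac in 50 mM potassium phosphate pH 7.4, 5 mM MgCl2, and G6P/NADP/G6PDH regeneration. Acetonitrile-extracted; conversion by UPLC-PDA-MS against authentic hydroxylated standards.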

[3] = O-demethylation of indomethacin catalysed by cytochrome P450 aluC09 and mutants; settings: % by UV peak area at 275 nm; 0.125 mg/ml substrate, 27° C., 16-20 hours
How it was run: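 Lyophilised CYP450aluC09 mutants with ferredoxin aluF03 and reductase SCF15A, 0.125 mg/ml substrate, 50 mM potassium phosphate pH 7.4, 5 mM MgCl2, G6P/G6PDH/NADP recycling. Shaken 16-20 h at 27° C. Acetonitrile-quenched, conversion measured by UPLC-MS.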

[4] = Metabolism of epothilone B by P450 aluC09 and mutants; settings: percent of substrate being converted; 0.125 mg/ml, 27° C., 16-20 hours; [CYP] per enzyme as in Table 8
How it was run: as §1

[5] = Metabolism of ritonavir by P450 aluC09 and mutants; settings: percent of substrate being converted; 0.125 mg/ml, 27° C., 16-20 hours; [CYP] per enzyme as in Table 8
How it was run: as §1

[6] = Metabolism of bosentan by P450 aluC09 and mutants; settings: percent of substrate being converted; 0.125 mg/ml, 27° C., 16-20 hours; [CYP] per enzyme as in Table 8
How it was run: as §1

[7] = Metabolism of buparvaquone by P450 aluC09 and mutants; settings: percent of substrate being converted; 0.125 mg/ml, 27° C., 16-20 hours; [CYP] per enzyme as in Table 8
How it was run: as §1

[8] = Metabolism of tofacitinib by P450 aluC09 and mutants; settings: percent of substrate being converted; 0.125 mg/ml, 27° C., 16-20 hours; [CYP] per enzyme as in Table 8
How it was run: as §1

[9] = Hydroxylation / de-N-ethylation of napropamide catalysed by cytochrome P450 aluC09 and mutants; settings: for Desethyl Napropamide (1.62 min) / Desethyl-hydroxy-Napropamide (1.41 min) / Hydroxy-Napropamide (1) (1.53 min) / Hydroxy-Napropamide (2), (1.52 min) / M-2Da (unidentified) (1.89 min) / Napropamide (substrate): % by UV peak area at 275 nm, 0.125 mg/ml substrate, 27° C., 16-20 hours; for Hydroxylated Ratio 2:1: napropamide, ratio of UV peak areas
How it was run: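 Conversion of napropamide (0.125 mg/ml) to hydroxylated and de-ethylated metabolites was measured by UPLC-MS after acetonitrile extraction. Reactions ran 16-20 h at 27° C in pH 7.4 potassium phosphate (50 mM) with 5 mM MgCl2, 1 mM NADP, 5 mM G6P and 2 UN/ml G6PDH. Enzymes were lyophilised P450 aluC09 variants, ferredoxin aluF03 and ferredoxin reductase SCF15A.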

[10] = Hydroxylation of flufenamic acid catalysed by cytochrome P450 aluC09 and mutants; settings: for Flufenamic Acid (Substrate) 1.93 mins / Hydroxy-Flufenamic Acid (1) 1.69 mins / Hydroxy-Flufenamic Acid (2) 1.65 mins: % by UV peak area at 275 nm, 0.125 mg/ml substrate, 27° C., 16-20 hours; for Hydroxylated Ratio 1:2: flufenamic acid, ratio of UV peak areas at 275 nm
How it was run: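 Lyophilised CYP450aluC09 mutants with ferredoxin aluF03 and reductase SCF15A, in 50 mM potassium phosphate pH 7.4, 5 mM MgCl2, 0.125 mg/ml flufenamic acid, G6P/NADP/G6PDH NADPH regeneration. Shaken 16-20 h at 27° C; acetonitrile-quenched, conversion to two hydroxy products by UPLC-MS.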

[11] = Metabolism of 4-pyrrolidylacetophenone by P450 aluC09 and mutants; settings: percent of substrate being converted; 0.125 mg/ml, 27° C., 16-20 hours; [CYP] per enzyme as in Table 8
How it was run: as §1

[12] = Metabolism of ruxolitinib by P450 aluC09 and mutants; settings: percent of substrate being converted; 0.125 mg/ml, 27° C., 16-20 hours; [CYP] per enzyme as in Table 8
How it was run: as §1

[13] = Metabolism of tivantinib by P450 aluC09 and mutants; settings: percent of substrate being converted; 0.125 mg/ml, 27° C., 16-20 hours; [CYP] per enzyme as in Table 8
How it was run: as §1

[14] = Metabolism of celecoxib by P450 aluC09 and mutants; settings: percent of substrate being converted; 0.125 mg/ml, 27° C., 16-20 hours; [CYP] per enzyme as in Table 8
How it was run: as §1

[15] = Hydroxylation of aceclofenac catalysed by cytochrome P450 aluC09 and mutants; settings: for Aceclofenac (Substrate) (1.80 mins) / Dihydroxy-Aceclofenac (1.42 mins) / Hydroxy-Aceclofenac (1) (1.64 min) / Hydroxy-Aceclofenac (2) (1.60 min): % by UV peak area at 275 nm, 0.125 mg/ml substrate, 27° C., 16-20 hours; for Hydroxylated Ratio 2:1: aceclofenac, ratio of UV peak areas at 275 nm
How it was run: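 Conversion was assessed by UPLC-MS (UV and MS detection) after acetonitrile extraction of reactions run 16-20 h at 27° C, shaking. Reactions contained substrate at 0.125 mg/ml, P450 mutant plus ferredoxin and reductase partners, 1 mM NADP with glucose-6-phosphate regeneration, in phosphate buffer pH 7.4.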

[16] = Metabolism of valsartan by P450 aluC09 and mutants; settings: percent of substrate being converted; 0.125 mg/ml, 27° C., 16-20 hours; [CYP] per enzyme as in Table 8
How it was run: as §1

Molecule | % conversions (avg) BIRB796 [1] [%] | 4′,5-dihydroxy-diclofenac 1.38 mins [2] [%] | 4′-hydroxy-diclofenac (1) 1.62 mins [2] [%] | 5-hydroxy-diclofenac (2) 1.58 mins [2] [%] | Diclofenac (Substrate) 1.81 mins [2] [%] | Hydroxylated Ratio hydroxy 1:hydroxy 2 [2] | Indomethacin (1.74 mins) [3] [%] | O-demethyl-Indomethacin (1.52 mins) [3] [%] | % conversions (avg) Epothilone B [4] [%] | % conversions (avg) Ritonavir [5] [%] | % conversions (avg) Bosentan [6] [%] | % conversions (avg) Buparvaquone [7] [%] | % conversions (avg) Tofacitinib [8] [%] | Desethyl Napropamide (1.62 min) [9] [%] | Desethyl-hydroxy-Napropamide (1.41 min) [9] [%] | Hydroxy-Napropamide (1) (1.53 min) [9] [%] | Hydroxy-Napropamide (2), (1.52 min) [9] [%] | M-2Da (unidentified) (1.89 min) [9] [%] | Napropamide (substrate) [9] [%] | Hydroxylated Ratio 2:1 [9] | further results
B1 | 10 | 1.9 | 31.4 | 15.9 | 51.8 | 2.0 | 89.0 | 11.0 | 50.2 | 64.1 | 98.6 | 10.5 | 0.9 | 40.1 | 3.3 | 1.6 | 3.3 | 6.0 | 47.3 | 2.1 | Flufenamic Acid (Substrate) 1.93 mins [10]: 91.3%; Hydroxy-Flufenamic Acid (1) 1.69 mins [10]: 6.4%; Hydroxy-Flufenamic Acid (2) 1.65 mins [10]: 2.2%; Hydroxylated Ratio 1:2 [10]: 2.9; % conversions (avg) 4-pyrrolidylacetophenone [11]: 7.3%; % conversions (avg) Ruxolitinib [12]: 34.2%; % conversions (avg) Tivantinib [13]: 31%; % conversions (avg) Celecoxib [14]: 7.2%; Aceclofenac (Substrate) (1.80 mins) [15]: 4.2%; Dihydroxy-Aceclofenac (1.42 mins) [15]: 56.0%; Hydroxy-Aceclofenac (1) (1.64 min) [15]: 4.5%; Hydroxy-Aceclofenac (2) (1.60 min) [15]: 35.3%; Hydroxylated Ratio 2:1 [15]: 7.8; % conversions (avg) Valsartan [16]: 41%
B2 | 0 | 2.2 | 35.7 | 14.3 | 48.8 | 2.5 | 88.8 | 11.2 | 2.4 | 53.4 | 76.5 | 0 | 0.4 | 12.9 | 0.4 | 2.3 | 1.8 | 2.4 | 80.6 | 0.8 | Flufenamic Acid (Substrate) 1.93 mins [10]: 94.8%; Hydroxy-Flufenamic Acid (1) 1.69 mins [10]: 4.4%; Hydroxy-Flufenamic Acid (2) 1.65 mins [10]: 0.9%; Hydroxylated Ratio 1:2 [10]: 4.9; % conversions (avg) 4-pyrrolidylacetophenone [11]: 1.7%; % conversions (avg) Ruxolitinib [12]: 5.2%; % conversions (avg) Tivantinib [13]: 5.3%; % conversions (avg) Celecoxib [14]: 0%; Aceclofenac (Substrate) (1.80 mins) [15]: 46.3%; Dihydroxy-Aceclofenac (1.42 mins) [15]: 12.7%; Hydroxy-Aceclofenac (1) (1.64 min) [15]: 19.7%; Hydroxy-Aceclofenac (2) (1.60 min) [15]: 21.4%; Hydroxylated Ratio 2:1 [15]: 1.1; % conversions (avg) Valsartan [16]: 7.3%
